# Patent US20190105403A1 (STCUBE, published 2019)
# T1: human PD-L1 4NQ (N35Q/N192Q/N200Q/N219Q), fully unglycosylated variant, expressed on BT549 cells (human, UniProt Q9NZQ7 19-290)
# T1 construct: In the Western blots the protein was in cell lysate; also called 4NQ PD-L1; unglycosylated PD-L1 4NQ mutant
# T1 chain: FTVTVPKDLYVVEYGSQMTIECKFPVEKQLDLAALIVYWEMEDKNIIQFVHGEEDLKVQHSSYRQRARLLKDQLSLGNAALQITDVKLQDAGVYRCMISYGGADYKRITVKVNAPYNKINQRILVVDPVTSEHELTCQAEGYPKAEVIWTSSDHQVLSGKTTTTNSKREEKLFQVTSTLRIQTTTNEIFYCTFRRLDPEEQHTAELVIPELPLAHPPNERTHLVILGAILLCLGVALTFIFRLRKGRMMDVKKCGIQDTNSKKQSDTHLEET
# B1: STM115 MAb (antibody, V domains shown)
# VH: EVMLVESGGALVEPGGSLKLSCVASGFTFSNYAMSWVRQTPERRLEWVASITNGGTYTYYPDSVKGRFTISRDNARNTLYLQMSSLRSEDTAMYFCARPLHYYGGSHFDYWGQGTTLTVSS
# VL: EIVLTQSPALMAASPGEKVTITCSVSSSISSNTLHWYQQKSEISPKPWIYGTSNLASGVPVRFSGSGSGTSYSLTISSMEAEDAATYYCQQWSSYPLTFGGGTKLEIK
# B2: STM108 MAb (antibody, V domains shown)
# VH: EVMLVESGGALVKPGGSLKLSCAASGFSLSNYVMSWVRQTPEKRLEWVATISSGGRYIYYTDSVKGRFTISRDNARNTLYLQMSSLRSEDTAMYYCARDGSTLYYFDYWGQGTTLTVSS
# VL: QTVLTQSPAIMSASPGEKVTMTCSASSSVDYMYWYQQKPGSSPRLLIYDTSNLASGVPVRFSGSGSGTSYSLTISRMEAEDAATYYCQQWSSSPPITFGTGTKVELK
# B3: STM073 MAb (antibody, V domains shown)
# VH: EVQLVESGGALVKPGGSLKLSCAASGFTFSNSAMSWVRQTPEKRLEWVATISSAGSYTYYPDSVKGRFTISRDNAKNTLYLQMSSLRSEDTALYYCTRHYDYYFDYWGQGATLTVSS
# VL: QIVLTQSPAIMSASPGEKVTLTCSASSSVSYMHWYQQKPGSSPRLVIYDTSNLASGVPVRFSGSGSGTSYSLTVSRMEAEDAATYYCQQWSDHPLTFGAGTKLELK
# B4: STM004 MAb (antibody, V domains shown)
# VH: QVQLQQSDAELVKPGASVKISCKASGYTFSDHAIHWVKQRPEQGLEWIGCISPGSGDITYNEKFKGKATLTADKSSSTAYMQLNSLTSEDSAVYFCKRWGLDYWGQGTTLTVSS
# VL: DIVLTQSPASLAVSLGQRATISCRASESVEFYGTTLMQWYQQKPGQPPRLLIYAASNVESGVPARFSGSGSGTDFSLNIHPVEDDDIAMYFCQQSRKVPYTFGGGTKLEIK
# Target: T1, human PD-L1 4NQ …
# Assay: flow cytometry on BT549 cells overexpressing PD-L1 4NQ (mixed with WT cells), FITC secondary antibody
row,MFI,Binder
1,21.3,B1
2,27.6,B2
3,12.2,B3
4,8.7,B4

# Target: T2, human PD-L1 wild type (glycosylated), expressed on cells (human, UniProt Q9NZQ7 19-290, N-glycosylated at N35, N192, N200 and N219)
# T2 construct: Endogenous on NCI-H226, A431 and MDA-MB231 cells and transfected into 4T1 cells in the functional assays; In the Western blots the protein was in cell lysate; also called PD-L1 WT; WT PD-L1
# Assay: flow cytometry on BT549 cells overexpressing PD-L1 WT (biotin labeled, mixed with 4NQ cells), FITC secondary antibody
# T2 sequence (Q9NZQ7 19-290): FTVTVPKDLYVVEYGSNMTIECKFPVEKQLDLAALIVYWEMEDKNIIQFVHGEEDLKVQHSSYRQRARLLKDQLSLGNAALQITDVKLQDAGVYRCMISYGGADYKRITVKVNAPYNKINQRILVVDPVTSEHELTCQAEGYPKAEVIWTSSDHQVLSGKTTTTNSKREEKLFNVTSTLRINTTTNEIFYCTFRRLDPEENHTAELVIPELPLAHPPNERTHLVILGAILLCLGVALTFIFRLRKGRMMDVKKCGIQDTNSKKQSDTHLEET
row,MFI,Binder
1,51.1,B1
2,117,B2
3,63.9,B3
4,42.5,B4
